Tests used:
serum cholesterol = details: mammals; cited from earlier work
beta-glucuronidase = details: cited from earlier work
[1] = target: T1, myo-inositol oxygenase (MIO) (Homo sapiens, UniProt Q9UGB7); assay: MIO-orcinol assay of recombinant human MIO; format: biochemical
T1 construct: made in house; host or cells: Hi5 / Sf-9 insect cells (baculovirus, pFastBacHTa); also E. coli DH10B (pTRC99A) and S. cerevisiae INVSc1 (pYES2)
T1 sequence (Q9UGB7 with tags, fused parts or gaps): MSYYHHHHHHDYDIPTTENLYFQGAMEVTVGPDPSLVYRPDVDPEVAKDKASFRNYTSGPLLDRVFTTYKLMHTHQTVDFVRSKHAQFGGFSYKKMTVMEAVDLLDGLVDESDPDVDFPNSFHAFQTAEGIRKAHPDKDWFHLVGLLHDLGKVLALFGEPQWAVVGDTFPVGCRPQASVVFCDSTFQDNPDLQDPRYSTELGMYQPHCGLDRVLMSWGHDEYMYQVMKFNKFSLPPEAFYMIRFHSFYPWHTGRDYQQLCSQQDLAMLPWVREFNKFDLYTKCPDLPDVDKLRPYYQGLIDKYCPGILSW
Procedure: MIO activity was determined using a modification of the method described by Reddy et al. (J. Biol. Chem., 256, 8510 (1981)). Briefly, this assay is based on the reaction of orcinol (5-methyl-1,3-benzenediol) with the MIO enzyme reaction product, D-glucuronic acid. The standard assay mixture contained 50 mM Tris-HCl (pH 8.0), 2.0 mM cysteine, 1.0 mM ferrous ammonium sulfate, 60 mM myo-inositol, and appropriate quantities of enzyme in a total volume of 0.50 mL. The stock L-cysteine solution (0.10 M) was prepared every two weeks, and the stock ferrous ammonium sulfate solution (0.50 M) was prepared fresh daily. The enzyme solutions consisted of cell extracts prepared as described or chromatography fractions generated during the partial purification of the enzyme. Prior to initiating the reaction by addition of the substrate myo-inositol (stock solution of 0.50 M, dissolved in 50 mM TEGG), all other reagents were mixed together by vortexing and incubated for 5 minutes at 30° C. The substrate was then added to initiate the assay. After vortex-mixing the components, the reaction was carried out in an air atmosphere at 30° C. with shaking at 200 rpm for 10 minutes. The reaction was terminated by the addition of 75 μL of 20% trichloroacetic acid. After vortexing, the assay mixture was transferred to a 1.5 mL polypropylene microcentrifuge tube, and the precipitated polypeptide was separated by centrifugation at 21,000×g for 3 minutes at 25° C. The supernatant was transferred to a new 1.5 mL polypropylene microcentrifuge tube, and the D-glucuronic acid concentration was determined by the orcinol colorimetric assay.
The orcinol colorimetric determination assay was performed as follows. Freshly prepared orcinol reagent (0.6 mL; 0.4% (w/v) orcinol, 0.09% (w/v) ferric trichloride hexahydrate in concentrated HCl) was added to 0.3 mL of the clear supernatant. The mixture was vortex-mixed and then incubated in a boiling water bath for 30 minutes. After cooling to 25° C., the mixture was cleared by centrifugation at 21,000×g for 3 minutes. The supernatant was transferred to a disposable cuvette, and the absorbance was measured at 660 nm. A standard curve was generated by replacing the enzyme fraction with D-glucuronic acid (0 to 40 μg/mL) and carrying out the assay as described above. […]
All reactions were run in duplicate, and all polypeptide fractions were assayed with and without added myo-inositol substrate (an equal volume of TEGG buffer with or without substrate was added to initiate the assay). The average of the absorbance readings of the assay mixtures carried out without substrate was subtracted from the average of readings of the assay mixtures containing substrate. […]

glucuronate reductase = target: T2, glucuronate reductase (Rattus norvegicus, UniProt P51635, T2A); assay: GLR assay, loss of absorbance at 340 nm (loss of NADPH); format: biochemical
T2 construct: His tag (pET30a fusion); made in house; host or cells: E. coli BLR(DE3), pET30a
T2 sequence (P51635 1-325 T2A): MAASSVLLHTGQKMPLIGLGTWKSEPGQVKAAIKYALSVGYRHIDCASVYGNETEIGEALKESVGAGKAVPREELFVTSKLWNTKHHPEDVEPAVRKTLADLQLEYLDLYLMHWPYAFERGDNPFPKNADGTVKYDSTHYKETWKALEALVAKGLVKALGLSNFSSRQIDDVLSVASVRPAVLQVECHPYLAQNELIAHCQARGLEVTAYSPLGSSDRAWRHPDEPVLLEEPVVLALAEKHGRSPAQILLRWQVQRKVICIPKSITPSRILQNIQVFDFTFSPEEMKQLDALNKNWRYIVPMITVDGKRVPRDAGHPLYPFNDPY
Procedure: GLR was assayed by following the loss of absorbance at 340 nm (loss of NADPH) using 0.3 mM NADPH, 10 mM glucuronic acid, and variable amount of enzyme in 100 mM sodium phosphate, pH 6.6 (Hayashi et al., J. Biochem., 95:2223-2232 (1984)). 1-2 micromoles of NADPH were typically consumed per minute per mg protein.

In the case of `O=C(O)[C@@H](O)[C@@H](O)[C@H](O)[C@@H](O)C(=O)O` [Glucaric acid], the “effect on serum cholesterol” value (serum cholesterol) is given as “lower serum cholesterol” and the inhibition of beta-glucuronidase (beta-glucuronidase) is given as “potent inhibitor”.

B1: human MIO polypeptide: Human myo-inositol oxygenase (ORF EMBL: CAB63064.1) expressed in E. coli or S. cerevisiae, assayed in cell extracts (protein, UniProt Q9UGB7 1-285, looked up)
Inositol oxygenase: MKVTVGPDPSLVYRPDVDPEVAKDKASFRNYTSGPLLDRVFTTYKLMHTHQTVDFVRSKHAQFGGFSYKKMTVMEAVDLLDGLVDESDPDVDFPNSFHAFQTAEGIRKAHPDKDWFHLVGLLHDLGKVLALFGEPQWAVVGDTFPVGCRPQASVVFCDSTFQDNPDLQDPRYSTELGMYQPHCGLDRVLMSWGHDEYMYQVMKFNKFSLPPEAFYMIRFHSFYPWHTGRDYQQLCSQQDLAMLPWVREFNKFDLYTKCPDLPDVDKLRPYYQGLIDKYCPGILSW
With B1 the specific activity ([1]; E. coli, pTRC99A, IPTG induced, desalted cell extract) was 8.8 μg glucuronic acid formed per mg polypeptide in 10 minutes and the specific activity ([1]; S. cerevisiae INVSc1, pYES2, cell extract, 12 hours after induction) was 13.4 μg glucuronic acid formed per mg polypeptide in 10 minutes.

B2: GLR: glucuronate reductase, rat glr expressed from pET30a in E. coli, His-Bind purified (protein, UniProt P51635 2-325, looked up)
Aldo-keto reductase family 1 …: TASSVLLHTGQKMPLIGLGTWKSEPGQVKAAIKYALSVGYRHIDCASVYGNETEIGEALKESVGAGKAVPREELFVTSKLWNTKHHPEDVEPAVRKTLADLQLEYLDLYLMHWPYAFERGDNPFPKNADGTVKYDSTHYKETWKALEALVAKGLVKALGLSNFSSRQIDDVLSVASVRPAVLQVECHPYLAQNELIAHCQARGLEVTAYSPLGSSDRAWRHPDEPVLLEEPVVLALAEKHGRSPAQILLRWQVQRKVICIPKSITPSRILQNIQVFDFTFSPEEMKQLDALNKNWRYIVPMITVDGKRVPRDAGHPLYPFNDPY
modifications: His tag
For B2, the NADPH consumed (glucuronate reductase; 0.3 mM NADPH, 10 mM glucuronic acid, pH 6.6) was 1-2 micromoles per minute per mg p and the “Specific Activity (purified protein)” value (glucuronate reductase; His-Bind purified from E. coli) was 1 to 3 µmol/min/mg.

B3: purified polypeptide: His-tagged human MIO polypeptide, SEQ ID NO:12, expressed by baculovirus in insect cells (protein)
chain: MSYYHHHHHHDYDIPTTENLYFQGAMEVTVGPDPSLVYRPDVDPEVAKDKASFRNYTSGPLLDRVFTTYKLMHTHQTVDFVRSKHAQFGGFSYKKMTVMEAVDLLDGLVDESDPDVDFPNSFHAFQTAEGIRKAHPDKDWFHLVGLLHDLGKVLALFGEPQWAVVGDTFPVGCRPQASVVFCDSTFQDNPDLQDPRYSTELGMYQPHCGLDRVLMSWGHDEYMYQVMKFNKFSLPPEAFYMIRFHSFYPWHTGRDYQQLCSQQDLAMLPWVREFNKFDLYTKCPDLPDVDKLRPYYQGLIDKYCPGILSW
modifications: His tag; human polypeptide with non-human sequences
In the case of B3, the MIO activity ([1]; Hi5 insect cells, baculovirus expression, FIG. 8) is reported as “exhibited MIO activity” and the specific activity ([1]; Nickel-NTA purified to homogeneity, from insect cells) is reported as 225 μg glucuronic acid formed per mg polypeptide during a 10 minute assay.

Reference: US20080187984A1, “Myo-inositol oxygenases” (Cargill, Incorporated, priority 2001, published 2008)
